Experimental data taken from patent publication US9879306B2, “Luciferase biosensors for cAMP” (PROMEGA CORPORATION, priority 2008, dated 2018).

T1: GPR41 (Homo sapiens, UniProt O14843)
T1 sequence (O14843 1-346): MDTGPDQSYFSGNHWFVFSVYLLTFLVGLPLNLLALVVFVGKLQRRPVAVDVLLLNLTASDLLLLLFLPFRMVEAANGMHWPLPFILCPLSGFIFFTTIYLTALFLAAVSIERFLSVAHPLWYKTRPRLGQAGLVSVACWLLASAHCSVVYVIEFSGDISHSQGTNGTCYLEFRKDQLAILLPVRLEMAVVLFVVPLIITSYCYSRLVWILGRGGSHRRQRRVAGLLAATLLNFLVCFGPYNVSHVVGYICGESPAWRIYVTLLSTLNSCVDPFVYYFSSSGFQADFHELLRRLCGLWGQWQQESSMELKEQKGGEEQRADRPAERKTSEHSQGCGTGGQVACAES


Legend:
[1] = target: T1, GPR41; experiment: Sodium proprionate CRC with biosensor variants in HEK293 cells stably expressing GPR41; type: cell-based; details: for Fold Response Na proprionate + FSK(1 μM): with FSK 1 μM; for Fold Response Na proprionate: without FSK, ratio of induced to uninduced signal
Experimental: (§1) After 24 hours, the cells were transiently transfected with one of the cAMP biosensor variants (Tables 7A and 7B). After another 24 hours, the cells were equilibrated for 2 hours at room temperature using 5 mM EF-luc in CO2 independent media with 10% FBS. Prior to the addition of the compounds, luminescence was measured. The compounds (12× stock in CO2 independent media without FBS) were then added to the cells. For GPR41 expressing cells, sodium proprionate CRC was added. […] The cells were allowed to incubate another 30 minutes and luminescence read on a Varioskan Flash. EC50 values and fold responses were calculated for each of the clones with each of the compounds with or without FSK. In addition, variants […]7 (Example VIIB), 16A2 (Example VIIB) and GS358 were also screened.

[2] = tested on: GPR41; experiment: as above; type: cell-based; details: ratio of RLU of FSK treated well to untreated well
Experimental: as §1

| Molecule | Fold Response Na proprionate + FSK(1 μM) [1] [fold] | Fold Response Na proprionate [1] [fold] | Fold Signal Change [2] [fold] |
| --- | --- | --- | --- |
| L9-LQ: L9 background with Luc2.0 F518L, K541Q; SEQ ID NO:102, 103 (protein) MPGAVGKVVPFFEAKVVDLDTGKTLGVNQRGELCVRGPMIMSGYVNNPEATNALIDKDGWLHSGDIAYWDEDEHFFIVDRLKSLIKYKGYQVAPAELESILLQHPNIFDAGVAGLPDDDAGELPAAVVVLEHGKTMTEKEIVDYVASQVTTAKKLRGGVVLVDEVPKGLTGKLDARKIREILIQAKKGSIAGCGDAGEGMYESFIESLPFLKSLEFSARLKVVDVIGTKVYNDGEQIIAQGDSADSFFIIESGEVKITMKRKGKSEVEENGAVEIARCSRGQYFGELALVTNKPRAASAHAIGTVKCLAMDVQAFERLLGPCMEIMKRNIATYEEQLVALFGTNMDIVAKNIKKGPAPFYPLEDGTAGEQLHKAMKRYALVPGTIAFTDAHIEVDITYAEYFEMSVRLAEAMKRYGLNTNHRIVVCSENSLQFFMPVLGALFIGVAVAPANDIYNERELLNSMGISQPTVVFVSKKGLQKILNVQKKLPIIQKIIIMDSKTDYQGFQSMYTFVTSHLPPGFNEYDFVPESFDRDKTIALIMNSSGSTGLPKGVALPHRTACVRFSHARDPIFGNQIIPDTAILSVVPFHHGFGMFTTLGYLICGFRVVLMYRFEEELFLRSLQDYKIQSALLVPTLFSFFAKSTLIDKYDLSNLHEIASGGAPLSKEVGEAVAKRFHLPGIRQGYGLTETTSAILITPEGV | 7.20 | 2.83 | 98.6 |
| L9-LQY: L9 background with Luc2.0 F518L, K541Q and RIIβB F407Y; SEQ ID NO:88, 89 (protein) MPGAVGKVVPFFEAKVVDLDTGKTLGVNQRGELCVRGPMIMSGYVNNPEATNALIDKDGWLHSGDIAYWDEDEHFFIVDRLKSLIKYKGYQVAPAELESILLQHPNIFDAGVAGLPDDDAGELPAAVVVLEHGKTMTEKEIVDYVASQVTTAKKLRGGVVLVDEVPKGLTGKLDARKIREILIQAKKGSIAGCGDAGEGMYESFIESLPFLKSLEFSARLKVVDVIGTKVYNDGEQIIAQGDSADSFFIIESGEVKITMKRKGKSEVEENGAVEIARCSRGQYFGELALVTNKPRAASAHAIGTVKCLAMDVQAFERLLGPCMEIMKRNIATYEEQLVALYGTNMDIVAKNIKKGPAPFYPLEDGTAGEQLHKAMKRYALVPGTIAFTDAHIEVDITYAEYFEMSVRLAEAMKRYGLNTNHRIVVCSENSLQFFMPVLGALFIGVAVAPANDIYNERELLNSMGISQPTVVFVSKKGLQKILNVQKKLPIIQKIIIMDSKTDYQGFQSMYTFVTSHLPPGFNEYDFVPESFDRDKTIALIMNSSGSTGLPKGVALPHRTACVRFSHARDPIFGNQIIPDTAILSVVPFHHGFGMFTTLGYLICGFRVVLMYRFEEELFLRSLQDYKIQSALLVPTLFSFFAKSTLIDKYDLSNLHEIASGGAPLSKEVGEAVAKRFHLPGIRQGYGLTETTSAILITPEGV | 13.78 | 1.95 | 136.0 |
| L9-IY: L9 background with Luc2.0 F369I and RIIβB F407Y; SEQ ID NO:76, 77 (protein) MPGAVGKVVPFIEAKVVDLDTGKTLGVNQRGELCVRGPMIMSGYVNNPEATNALIDKDGWLHSGDIAYWDEDEHFFIVDRLKSLIKYKGYQVAPAELESILLQHPNIFDAGVAGLPDDDAGELPAAVVVLEHGKTMTEKEIVDYVASQVTTAKKLRGGVVFVDEVPKGLTGKLDARKIREILIKAKKGSIAGCGDAGEGMYESFIESLPFLKSLEFSARLKVVDVIGTKVYNDGEQIIAQGDSADSFFIIESGEVKITMKRKGKSEVEENGAVEIARCSRGQYFGELALVTNKPRAASAHAIGTVKCLAMDVQAFERLLGPCMEIMKRNIATYEEQLVALYGTNMDIVAKNIKKGPAPFYPLEDGTAGEQLHKAMKRYALVPGTIAFTDAHIEVDITYAEYFEMSVRLAEAMKRYGLNTNHRIVVCSENSLQFFMPVLGALFIGVAVAPANDIYNERELLNSMGISQPTVVFVSKKGLQKILNVQKKLPIIQKIIIMDSKTDYQGFQSMYTFVTSHLPPGFNEYDFVPESFDRDKTIALIMNSSGSTGLPKGVALPHRTACVRFSHARDPIFGNQIIPDTAILSVVPFHHGFGMFTTLGYLICGFRVVLMYRFEEELFLRSLQDYKIQSALLVPTLFSFFAKSTLIDKYDLSNLHEIASGGAPLSKEVGEAVAKRFHLPGIRQGYGLTETTSAILITPEGV | – | 2.53 | 86.4 |
| L9-IQY: L9 background with Luc2.0 F369I, K541Q and RIIβB F407Y; SEQ ID NO:78, 79 (protein) MPGAVGKVVPFIEAKVVDLDTGKTLGVNQRGELCVRGPMIMSGYVNNPEATNALIDKDGWLHSGDIAYWDEDEHFFIVDRLKSLIKYKGYQVAPAELESILLQHPNIFDAGVAGLPDDDAGELPAAVVVLEHGKTMTEKEIVDYVASQVTTAKKLRGGVVFVDEVPKGLTGKLDARKIREILIQAKKGSIAGCGDAGEGMYESFIESLPFLKSLEFSARLKVVDVIGTKVYNDGEQIIAQGDSADSFFIIESGEVKITMKRKGKSEVEENGAVEIARCSRGQYFGELALVTNKPRAASAHAIGTVKCLAMDVQAFERLLGPCMEIMKRNIATYEEQLVALYGTNMDIVAKNIKKGPAPFYPLEDGTAGEQLHKAMKRYALVPGTIAFTDAHIEVDITYAEYFEMSVRLAEAMKRYGLNTNHRIVVCSENSLQFFMPVLGALFIGVAVAPANDIYNERELLNSMGISQPTVVFVSKKGLQKILNVQKKLPIIQKIIIMDSKTDYQGFQSMYTFVTSHLPPGFNEYDFVPESFDRDKTIALIMNSSGSTGLPKGVALPHRTACVRFSHARDPIFGNQIIPDTAILSVVPFHHGFGMFTTLGYLICGFRVVLMYRFEEELFLRSLQDYKIQSALLVPTLFSFFAKSTLIDKYDLSNLHEIASGGAPLSKEVGEAVAKRFHLPGIRQGYGLTETTSAILITPEGV | – | 3.82 | 96.0 |
| 7A1-IQY: 7A1 background with Luc2.0 F369I, K541Q and RIIβB F407Y; SEQ ID NO:29, 30 (protein) MPGAVGKVVPFIEAKVVDLDTGKTLGVNQRGELCVRGPMIMSGYVNNPEATNALIDKDGWLHSGDIAYWDEDEHFFIVDRLKSLIKYKGYQVAPAELESILLQHPNIFDAGVAGLPDDDAGELPAAVVVLEHGKTMTEKEIVDYVASQVTTAKKLRGGVVFVDEVPKGLTGKLDARKIREILIQAKKGSNWDSGCSREGMYESFIESLPFLKSLEFSARLKVVDVIGTKVYNDGEQIIAQGDSADSFFIIESGEVKITMKRKGKSEVEENGAVEIARCSRGQYFGELALVTNKPRAASAHAIGTVKCLAMDVQAFERLLGPCMEIMKRNIATYEEQLVALYGTNMDIVAKNIKKGPAPFYPLEDGTAGEQLHKAMKRYALVPGTIAFTDAHIEVDITYAEYFEMSVRLAEAMKRYGLNTNHRIVVCSENSLQFFMPVLGALFIGVAVAPANDIYNERELLNSMGISQPTVVFVSKKGLQKILNVQKKLPIIQKIIIMDSKTDYQGFQSMYTFVTSHLPPGFNEYDFVPESFDRDKTIALIMNSSGSTGLPKGVALPHRTACVRFSHARDPIFGNQIIPDTAILSVVPFHHGFGMFTTLGYLICGFRVVLMYRFEEELFLRSLQDYKIQSALLVPTLFSFFAKSTLIDKYDLSNLHEIASGGAPLSKEVGEAVAKRFHLPGIRQGYGLTETTSAILITPEGV | – | 2.42 | 128.0 |
| L9-QY: L9 background with Luc2.0 K541Q and RIIβB F407Y; SEQ ID NO:90, 91 (protein) MPGAVGKVVPFFEAKVVDLDTGKTLGVNQRGELCVRGPMIMSGYVNNPEATNALIDKDGWLHSGDIAYWDEDEHFFIVDRLKSLIKYKGYQVAPAELESILLQHPNIFDAGVAGLPDDDAGELPAAVVVLEHGKTMTEKEIVDYVASQVTTAKKLRGGVVFVDEVPKGLTGKLDARKIREILIQAKKGSIAGCGDAGEGMYESFIESLPFLKSLEFSARLKVVDVIGTKVYNDGEQIIAQGDSADSFFIIESGEVKITMKRKGKSEVEENGAVEIARCSRGQYFGELALVTNKPRAASAHAIGTVKCLAMDVQAFERLLGPCMEIMKRNIATYEEQLVALYGTNMDIVAKNIKKGPAPFYPLEDGTAGEQLHKAMKRYALVPGTIAFTDAHIEVDITYAEYFEMSVRLAEAMKRYGLNTNHRIVVCSENSLQFFMPVLGALFIGVAVAPANDIYNERELLNSMGISQPTVVFVSKKGLQKILNVQKKLPIIQKIIIMDSKTDYQGFQSMYTFVTSHLPPGFNEYDFVPESFDRDKTIALIMNSSGSTGLPKGVALPHRTACVRFSHARDPIFGNQIIPDTAILSVVPFHHGFGMFTTLGYLICGFRVVLMYRFEEELFLRSLQDYKIQSALLVPTLFSFFAKSTLIDKYDLSNLHEIASGGAPLSKEVGEAVAKRFHLPGIRQGYGLTETTSAILITPEGV | 10.02 | 2.01 | 61.3 |
